Test results from US20240122985A1, “ANTIBODIES, COMBINATIONS COMPRISING ANTIBODIES, BIOMARKERS, USES & METHODS” (KYMAB LIMITED, priority 2016, published 2024).
Several values for one entry are separate records, joined by “and”; a condition that tells them apart may be missing. Identical values can stand only once.

Key:
[1] = test system: peripheral blood or T-cell donor chimerism; test: Donor chimerism in rhesus HSCT recipients (microsatellite markers); assay type: in vivo, Rhesus macaque; conditions: per animal
Experimental: Peripheral blood or T-cell (CD3^+/CD20−) chimerism was determined using divergent donor- and recipient-specific MHC-linked microsatellite markers, by comparing peak heights of the donor- and recipient-specific amplicons (Penedo M C et al, (2005) “Microsateliite typing of the rhesus macaque MHC region”, Imunogenetics 57:198-209).
Flow cytometrically-sorted T-cells (CD3^+/CD20−) were analysed for donor chimerism based on divergent microsatellite markers. Chimerism analysis was performed at the UC Davis veterinary genetics laboratory as previously described (Larsen et al., 2010; Kean et al., 2007).

[2] = test system: Cytomegalovirus (CMV), bacterial and fungal infections; test: CMV monitoring and infections after transplant; assay type: in vivo, Rhesus macaque; conditions: 2D10 IgG4PE Rhesus GvHD Study, per animal
Experimental: Cytomegalovirus (CMV) monitoring was performed as previously described (Larsen et al, 2010) and is reported as CMV copies/mL of whole blood. Whole blood samples were collected and CMV viral load was measured twice weekly on days 0 to 30 post-HCT, then at least once weekly on days 31 to 60 post-HCT and then at least once every 2 weeks from day 61 until the experimental endpoint. CMV prophylaxis and treatment was performed according to our standard NHP strategy, as previously described (Zheng et al, 2017). Briefly, CMV prophylaxis was provided to all transplant recipients and included weekly Cidofovir, given at a dose of 5 mg/kg, along with renal protection with 3 doses of Probenecid (167 mg PO/dose) given within the first 24 hours after each cidofovir dose. Recipients who reactivated CMV continued cidofovir and were also treated with parenteral gancyclovir, which was given at 5 mg/kg/dose twice daily. Gancyclovir treatment was continued until CMV levels were undetectable for two weeks and then discontinued.

B1: 2D10 IgG4PE: fully human anti-human OX40L monoclonal antibody, human IgG4-PE; VH Seq ID No:34, VL Seq ID No:48; 2D10-1 to -4 are stable pools (antibody, V domains shown)
VH: EVQLVESGGGLVQPGGSLRLSCAASGFTFSNYAMNWVRQAPGKGLEWVSTISGSGGATRYADSVKGRFTISRDNSRNTVYLQMNSLRVEDTAVFYCTKDRLIMATVRGPYYYGMDVWGQGTTVTVSS
VL: DIQMTQSPSSLSASVGDRVTITCRASQSISSYLNWYQQKPGKAPNLLIYAASSLQSGVPSRFSGSGSETDFTLTISSLQPEDFATYYCQQSHSVSFTFGPGTKVDIK
modifications: human IgG4-PE constant regions; 02D10 - VH Amino Acid Sequence; 02D10 - VL Amino Acid Sequence
- Peak peripheral blood donor chimerism ([1]; 2D10 IgG4PE Rhesus GvHD Study): 88% and 99% (2×) and 100%
- Whole Blood Chimerism (%) Day 0 ([1]; Day 0): 0%
- Whole Blood Chimerism (%) Day 1 ([1]; Day 1): 16.6% and 5.7% and 22.9%
- Whole Blood Chimerism (%) Day 4 ([1]; Day 4): 6.6%
- Whole Blood Chimerism (%) Day 5 ([1]; Day 5): 91.4% and 66.3% and 31.7% and 68.2%
- Whole Blood Chimerism (%) Day 7 ([1]; Day 7): 27.5%
- Whole Blood Chimerism (%) Day 8 ([1]; Day 8): 98.4% and 97.4% and 66.3% and 82.9%
- Whole Blood Chimerism (%) Day 11 ([1]; Day 11): 90.4%
- Whole Blood Chimerism (%) Day 12 ([1]; Day 12): 98.6% and 99.5% and 82.3% and 92.1%
- Whole Blood Chimerism (%) Day 14 ([1]; Day 14): 81.8%
- Whole Blood Chimerism (%) Day 15 ([1]; Day 15): 99.1% and 99.4% and 88.2% and 97.5%
- Whole Blood Chimerism (%) Day 16 ([1]; Day 16): 79.8%
- Whole Blood Chimerism (%) Day 18 ([1]; Day 18): 19.7%
- Whole Blood Chimerism (%) Day 20 ([1]; Day 20): 99.2% and 98.4%
- Whole Blood Chimerism (%) Day 21 ([1]; Day 21): 0%
- Whole Blood Chimerism (%) Day 23 ([1]; Day 23): 98.6% and 98.8%
- Whole Blood Chimerism (%) Day 26 ([1]; Day 26): 98.7%
- evidence of CMV or rhLCV infection [2]: No evidence of CMV or rhLCV infection and No (3×) and followed by autologous repopulation concurrent with evidence of CMV and rhLCV
